Data on two substances can be found in publication PMC10231827.

One assay has as its target hACE2-Fc (human) (UniProt Q9BYF1). Description: BLI; ACE2-Fc (10 ug/ml in kinetic buffer) captured on anti-human IgG Fc capture (AHC) biosensors, S2P glycoproteins as analyte; 30°C; association 300 s, dissociation 300 s; 1:1 binding model. A general note: BLI is a label-free optical method that tracks binding on a fibre tip over time.
Assay [1] concerns the target S2P.OmiBA1-1208.H8 (SARS CoV-2 (Omicron BA.1)). The assay is described as follows: SEC.

In the case of S2P.OmiBA1-FHA (domain or fragment), in the assay with hACE2-Fc (human), the dissociation constant Kd is 641 pM, the Req came out at 0.35 nm, the koff was 0.00027 s⁻¹ and the kon was 420000 M⁻¹ s⁻¹.

S2P.OmiBA1-1208.H8 (domain or fragment) had a percent dissociated to a lower-order form after freeze-thaw in assay [1] of 15%.

For orientation: Kd means the free concentration of one partner at which half of the binding sites on the other are occupied at equilibrium, for simple one-to-one binding. Read a low Kd as higher affinity. As usually defined, the koff is the rate constant with which the complex falls apart. The low end stands for a long-lived complex, the high end for a short-lived complex. As usually defined, the kon is the second-order rate constant of association. High values mean faster complex formation, low ones slower complex formation.
